Measurements from patent US20190119318A1.
Several values for one entry are separate records, joined by “and”; a condition that tells them apart may be missing. Identical values can stand only once.

Columns and labels:
[1] = target: human polyclonal IgG (Gammanorm) (human); experiment: column DBC; base C2; ligand […]
[2] = target: human polyclonal IgG (Gammanorm) (human); experiment: column DBC; base A28; ligand 11.9 mg/ml
[3] = target: human polyclonal IgG (Gammanorm) (human); experiment: column DBC; base H40; ligand […]
[4] = target: human polyclonal IgG (Gammanorm) (human); experiment: column DBC; base C3; ligand […]; settings: ligand content 5.9 mg/ml
[5] = target: human polyclonal IgG (Gammanorm) (human); experiment: column DBC; base A39; ligand 10.5 mg/ml
[6] = target: human polyclonal IgG (Gammanorm) (human); experiment: column DBC; base A27; ligand […]
[7] = target: human polyclonal IgG (Gammanorm) (human); experiment: column DBC; base A28; ligand 7.9 mg/ml
[8] = target: human polyclonal IgG (Gammanorm) (human); experiment: column DBC; base A20; ligand 10.6 mg/ml
[9] = target: human polyclonal IgG (Gammanorm) (human); experiment: column DBC; base A40; ligand 13.15 mg/ml
[10] = target: human polyclonal IgG (Gammanorm) (human); experiment: column DBC; base A39; ligand 10.48 mg/ml
[11] = target: human polyclonal IgG (Gammanorm) (human); experiment: column DBC; ligand 13 mg/ml; before incubation in 1 M NaOH
[12] = target: human polyclonal IgG (Gammanorm) (human); experiment: column DBC; base A63a; ligand 14.0 mg/ml
[13] = target: human polyclonal IgG (Gammanorm) (human); experiment: column DBC; base A62a; ligand 14.8 mg/ml
[14] = target: human polyclonal IgG (Gammanorm) (human); experiment: column DBC; base A20; ligand […]
[15] = target: human polyclonal IgG (Gammanorm) (human); experiment: column DBC; base A41; ligand 8.83 mg/ml
[16] = target: human polyclonal IgG (Gammanorm) (human); experiment: column DBC; base B5; ligand 9.6 mg/ml
[17] = target: human polyclonal IgG (Gammanorm) (human); experiment: column DBC; ligand 20 mg/ml; before incubation in 1 M NaOH
[18] = target: human polyclonal IgG (Gammanorm) (human); experiment: column DBC; base A18; ligand 13.4 mg/ml
[19] = target: human polyclonal IgG (Gammanorm) (human); experiment: SPR; vs reference Zvar4; 0.5 M NaOH
[20] = target: human polyclonal IgG (Gammanorm) (human); experiment: column DBC; ligand 12 mg/ml; before incubation in 1 M NaOH
[21] = target: human polyclonal IgG (Gammanorm) (human); experiment: column DBC; base B5; ligand 6.3 mg/ml
[22] = target: human polyclonal IgG (Gammanorm) (human); experiment: column DBC; base A38; ligand 11.3 mg/ml
[23] = target: human polyclonal IgG (Gammanorm) (human); experiment: column DBC; base A65a; ligand 6.6 mg/ml
[24] = target: human polyclonal IgG (Gammanorm) (human); experiment: column DBC; base A40; ligand 11.03 mg/ml
[25] = target: human polyclonal IgG (Gammanorm) (human); experiment: column DBC; base A65a; ligand 13.6 mg/ml
[26] = target: human polyclonal IgG (Gammanorm) (human); experiment: column DBC; base C1; ligand […]
[27] = target: human polyclonal IgG (Gammanorm) (human); experiment: column DBC; base C2; ligand 10.5 mg/ml
[28] = target: human polyclonal IgG (Gammanorm) (human); experiment: column DBC; base A62a; ligand 6.4 mg/ml
[29] = target: human polyclonal IgG (Gammanorm) (human); experiment: column DBC; base A62a; ligand 7.5 mg/ml
[30] = target: human polyclonal IgG (Gammanorm) (human); experiment: column DBC; base A33; ligand 7.33 mg/ml
[31] = target: human polyclonal IgG (Gammanorm) (human); experiment: column DBC; base A39; ligand 7.0 mg/ml
[32] = target: human polyclonal IgG (Gammanorm) (human); experiment: column DBC; base I1; ligand 11.2 mg/ml
[33] = target: human polyclonal IgG (Gammanorm) (human); experiment: column DBC; base A32; ligand […]
[34] = target: human polyclonal IgG (Gammanorm) (human); experiment: column DBC; base A38; ligand 11.34 mg/ml
[35] = target: human polyclonal IgG (Gammanorm) (human); experiment: column DBC; base A65a; ligand 6.1 mg/ml
[36] = target: human polyclonal IgG (Gammanorm) (human); experiment: column DBC; base A63a; ligand 6.1 mg/ml
[37] = target: human polyclonal IgG (Gammanorm) (human); experiment: column DBC; base A29; ligand 7.3 mg/ml
[38] = target: human polyclonal IgG (Gammanorm) (human); experiment: column DBC; base C4; ligand 10.1 mg/ml
[39] = target: human polyclonal IgG (Gammanorm) (human); experiment: column DBC; base H40; ligand 9.1 mg/ml
[40] = target: human polyclonal IgG (Gammanorm) (human); experiment: column DBC; base A41; ligand 13.0 mg/ml

## Zvar(Q9A,N11E,Q40V,A42K,N43A,L44I)4 (designed binder)
[1]
  Qb10% 2.4 min: 39 mg/mL
  Qb10% 6 min: 46 mg/mL
[2]
  Qb10% 2.4 min: 39.9 mg/mL and 40 mg/mL
  Qb10% 6 min: 63.8 mg/mL and 64 mg/mL
[3]
  Qb10% 2.4 min: 47 mg/mL
  Qb10% 6 min: 52 mg/mL
[4]
  Qb10% 2.4 min: 44 mg/mL
  Qb10% 6 min: 52 mg/mL
[5]
  Qb10% 2.4 min: 44 mg/mL
  Qb10% 6 min: 65 mg/mL
[6]
  Qb10% 2.4 min: 24.8 mg/mL
  Qb10% 6 min: 55.6 mg/mL
[7]
  Qb10% 2.4 min: 42.4 mg/mL and 42 mg/mL
  Qb10% 6 min: 58.2 mg/mL and 58 mg/mL
[8]
  Qb10% 2.4 min: 50.7 mg/mL and 51 mg/mL
  Qb10% 6 min: 70.1 mg/mL and 70 mg/mL
[9]
  Qb10% 2.4 min: 56.9 mg/mL
  Qb10% 6 min: 71.1 mg/mL
[10]
  Qb10% 2.4 min: 44.4 mg/mL
  Qb10% 6 min: 64.8 mg/mL
[11]
  Qb10%, 6 min, before incubation: 79 mg/mL
[12]
  Qb10% 2.4 min: 48 mg/mL
  Qb10% 6 min: 56 mg/mL
[13]
  Qb10% 2.4 min: 55 mg/mL
  Qb10% 6 min: 62 mg/mL
[14]
  Qb10% 2.4 min: 49 mg/mL
  Qb10% 6 min: 67 mg/mL
[15]
  Qb10% 2.4 min: 38.5 mg/mL and 37.8 mg/mL and 35.1 mg/mL
  Qb10% 6 min: 56.8 mg/mL and 58.6 mg/mL and 57.2 mg/mL
[16]
  Qb10% 2.4 min: 45 mg/mL
  Qb10% 6 min: 47 mg/mL
[17]
  Qb10%, 6 min, before incubation: 73 mg/mL
[18]
  Qb10% 6 min: 63 mg/mL
[19]
  capacity relative to ref. 100 cycles: 1.34
  capacity relative to ref. 200 cycles: 2.06
  capacity relative to ref. 300 cycles: 3.56
[20]
  Qb10%, 6 min, before incubation: 78 mg/mL
[21]
  Qb10% 2.4 min: 32 mg/mL
  Qb10% 6 min: 38 mg/mL
[22]
  Qb10% 2.4 min: 48 mg/mL
  Qb10% 6 min: 73 mg/mL
[23]
  Qb10% 2.4 min: 42 mg/mL
  Qb10% 6 min: 47 mg/mL
[24]
  Qb10% 2.4 min: 55 mg/mL
  Qb10% 6 min: 73.8 mg/mL
[25]
  Qb10% 2.4 min: 52 mg/mL
  Qb10% 6 min: 61 mg/mL
[26]
  Qb10% 2.4 min: 38 mg/mL
  Qb10% 6 min: 47 mg/mL
[27]
  Qb10% 2.4 min: 42 mg/mL
  Qb10% 6 min: 57 mg/mL
[28]
  Qb10% 2.4 min: 43 mg/mL
  Qb10% 6 min: 45 mg/mL
[29]
  Qb10% 2.4 min: 47 mg/mL
  Qb10% 6 min: 56 mg/mL
[30]
  Qb10% 2.4 min: 48.7 mg/mL
  Qb10% 6 min: 55.8 mg/mL
[31]
  Qb10% 2.4 min: 42 mg/mL
  Qb10% 6 min: 55 mg/mL
[32]
  Qb10% 2.4 min: 57 mg/mL
  Qb10% 6 min: 68 mg/mL
[33]
  Qb10% 2.4 min: 40 mg/mL
  Qb10% 6 min: 57 mg/mL
[34]
  Qb10% 2.4 min: 48.1 mg/mL
  Qb10% 6 min: 72.8 mg/mL
[35]
  Qb10% 2.4 min: 40 mg/mL
  Qb10% 6 min: 44 mg/mL
[36]
  Qb10% 2.4 min: 39 mg/mL
  Qb10% 6 min: 44 mg/mL
[37]
  Qb10% 2.4 min: 36.3 mg/mL
  Qb10% 6 min: 51.8 mg/mL
[38]
  Qb10% 2.4 min: 55 mg/mL
  Qb10% 6 min: 63 mg/mL
[39]
  Qb10% 2.4 min: 52 mg/mL
  Qb10% 6 min: 67 mg/mL
[40]
  Qb10% 2.4 min: 35 mg/mL
  Qb10% 6 min: 62.2 mg/mL
